Data from IntAct's records for PubMed 12606577.

Legend:
pak1_human PAK1 = pak1_human PAK1 (UniProt Q13153)
par6b_mouse Pard6b = par6b_mouse Pard6b (UniProt Q9JK83)
par6b_mouse Pard6b, sequence (Q9JK83 whole entry): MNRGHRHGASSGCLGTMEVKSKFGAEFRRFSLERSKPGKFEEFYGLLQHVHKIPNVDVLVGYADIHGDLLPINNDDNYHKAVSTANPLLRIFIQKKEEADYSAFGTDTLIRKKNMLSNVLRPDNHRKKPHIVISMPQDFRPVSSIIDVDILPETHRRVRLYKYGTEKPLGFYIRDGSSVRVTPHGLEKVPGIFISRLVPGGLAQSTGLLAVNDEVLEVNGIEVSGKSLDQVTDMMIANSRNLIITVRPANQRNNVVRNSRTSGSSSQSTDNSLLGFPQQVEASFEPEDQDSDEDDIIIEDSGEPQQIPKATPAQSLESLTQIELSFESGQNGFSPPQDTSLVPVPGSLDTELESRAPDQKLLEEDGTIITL

pak1_human PAK1, sequence (Q13153 whole entry): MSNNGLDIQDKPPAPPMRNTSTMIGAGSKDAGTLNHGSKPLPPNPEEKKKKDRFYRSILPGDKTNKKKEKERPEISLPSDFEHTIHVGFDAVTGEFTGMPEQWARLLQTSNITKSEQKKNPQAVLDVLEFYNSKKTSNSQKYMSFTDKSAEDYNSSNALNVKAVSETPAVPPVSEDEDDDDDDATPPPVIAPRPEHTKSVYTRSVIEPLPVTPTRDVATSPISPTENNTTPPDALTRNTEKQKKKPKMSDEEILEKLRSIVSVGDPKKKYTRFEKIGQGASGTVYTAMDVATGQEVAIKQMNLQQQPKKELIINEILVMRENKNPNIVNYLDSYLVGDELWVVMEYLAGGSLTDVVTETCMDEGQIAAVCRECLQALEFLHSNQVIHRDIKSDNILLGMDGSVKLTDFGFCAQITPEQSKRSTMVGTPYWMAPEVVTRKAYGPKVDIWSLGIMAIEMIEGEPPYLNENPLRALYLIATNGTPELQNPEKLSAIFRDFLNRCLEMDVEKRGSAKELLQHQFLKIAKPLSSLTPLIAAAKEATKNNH
Cell division control protein 42 homolog (Homo sapiens), P60953 Y40K, sequence (P60953 whole entry Y40K): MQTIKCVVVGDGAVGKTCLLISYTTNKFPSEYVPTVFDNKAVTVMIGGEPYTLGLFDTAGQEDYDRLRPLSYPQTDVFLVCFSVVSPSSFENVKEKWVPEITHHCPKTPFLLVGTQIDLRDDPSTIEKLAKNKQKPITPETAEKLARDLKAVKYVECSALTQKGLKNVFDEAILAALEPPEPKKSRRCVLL
Cell division control protein 42 homolog (Homo sapiens), P60953 D38A, sequence (P60953 whole entry D38A): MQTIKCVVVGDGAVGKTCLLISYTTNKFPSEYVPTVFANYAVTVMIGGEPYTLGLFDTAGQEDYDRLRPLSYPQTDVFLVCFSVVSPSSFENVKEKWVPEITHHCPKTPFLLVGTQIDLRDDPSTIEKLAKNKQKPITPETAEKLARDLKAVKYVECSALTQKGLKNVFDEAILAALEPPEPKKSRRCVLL
Cell division control protein 42 homolog (Homo sapiens), P60953 F37A, sequence (P60953 whole entry F37A): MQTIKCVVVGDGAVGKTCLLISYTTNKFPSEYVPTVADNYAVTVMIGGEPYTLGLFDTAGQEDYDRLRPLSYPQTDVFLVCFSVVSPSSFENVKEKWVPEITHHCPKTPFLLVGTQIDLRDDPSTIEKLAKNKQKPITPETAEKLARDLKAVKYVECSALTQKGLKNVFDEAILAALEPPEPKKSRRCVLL

| effect of a mutation on the interaction (pak1_human PAK1) | effect of a mutation on the interaction (par6b_mouse Pard6b) | Substance |
| --- | --- | --- |
| decreasing interaction | decreasing interaction | Cell division control protein 42 homolog (Homo sapiens), P60953 D38A |
| – | decreasing interaction | Cell division control protein 42 homolog (Homo sapiens), P60953 F37A |
| decreasing interaction | decreasing interaction | Cell division control protein 42 homolog (Homo sapiens), P60953 Y40K |
